Legend:
Settings in all cases: both partners purified
[1] = target: T1, Blood dendritic cell antigen 2 of macaca fascicularis (cBDCA-2) extracellular fragment (Macaca fascicularis, UniProt A0A2K5UWP4); assay: BLI; standard measurement of kinetics with the immobilization of antibodies on AR2G sensors (Sartorius)
T1 construct: Blood dendritic cell antigen 2 (BDCA-2) of Macaca fascicularis, extracellular fragment, residues 45-213 of XP_005570080.1; source: CHO, transient transfection, purified (Ni-NTA, SEC Superdex 75)

[2] = target: T1, Blood dendritic cell antigen 2 of …; assay: BLI; biotinylated FcγRIa on SA sensors (5 μg/mL, to 1 nm), antibodies for 300 s, then antigens 10 μg/mL for 600 s; kinetic buffer pH 7.4, 30 °C; constants from the empirical model Equation (A1), k_diss fixed
[3] = target: T1, Blood dendritic cell antigen 2 of …; assay: BLI; biotinylated FcγRIIIa on SA sensors (5 μg/mL, to 1 nm), antibodies for 300 s, then antigens 10 μg/mL for 300 s; kinetic buffer pH 7.4, 30 °C; constants from the empirical model Equation (A1), k_diss fixed
[4] = target: T2, Nectin-like protein 5 (NECL-5 or CD155) extracellular fragment (UniProt P15151); assay: BLI; ProA sensors; antibodies loaded at 10 micrograms/mL for 300 s, antigens 10 μg/mL, association 7200 s; 30 °C, PBS, 0.1% Tween 20, 0.1% BSA, pH 7.4; constants from the empirical model Equation (A1), k_diss fixed
T2 construct: Nectin-like protein 5 (NECL-5, CD155, poliovirus receptor), extracellular fragment, residues 28-343 of NP_001129242.2; also called poliovirus receptor; source: CHO, transient transfection, purified (Ni-NTA, SEC Superdex 75)

[5] = target: T3, Triggering receptor expressed on myeloid cells 2 (TREM-2) extracellular fragment (UniProt Q9NZC2-1); assay: as above
T3 construct: Triggering receptor expressed on myeloid cells 2 (TREM-2), extracellular fragment, residues 19-174 of NP_061838.1; source: CHO, transient transfection, purified (Ni-NTA, SEC Superdex 75)

[6] = target: T1, Blood dendritic cell antigen 2 of …; assay: as above
[7] = target: T1, Blood dendritic cell antigen 2 of …; assay: BLI; biotinylated FcRn on SA sensors (5 μg/mL, to 1 nm), antibodies 10 μg/mL for 180 s, then antigens 20 μg/mL for 300 s; kinetic buffer pH 6.0, 30 °C; constants from the empirical model Equation (A1), k_diss fixed
[8] = target: T2, Nectin-like protein 5 (NECL-5 or CD155) …; assay: BLI; standard measurement of kinetics with the immobilization of antibodies on AR2G sensors (Sartorius)
[9] = target: T2, Nectin-like protein 5 (NECL-5 or CD155) …; assay: BLI; biotinylated FcγRIa on SA sensors (5 μg/mL, to 1 nm), antibodies for 300 s, then antigens 10 μg/mL for 600 s; kinetic buffer pH 7.4, 30 °C; constants from the empirical model Equation (A1), k_diss fixed
[10] = target: T2, Nectin-like protein 5 (NECL-5 or CD155) …; assay: BLI; biotinylated FcγRIIIa on SA sensors (5 μg/mL, to 1 nm), antibodies for 300 s, then antigens 10 μg/mL for 300 s; kinetic buffer pH 7.4, 30 °C; constants from the empirical model Equation (A1), k_diss fixed
[11] = target: T1, Blood dendritic cell antigen 2 of …; assay: BLI; ProA sensors; antibodies loaded at 10 micrograms/mL for 300 s, antigens 10 μg/mL, association 7200 s; 30 °C, PBS, 0.1% Tween 20, 0.1% BSA, pH 7.4; constants from the empirical model Equation (A1), k_diss fixed; remark: listed apart in the source
[12] = target: T2, Nectin-like protein 5 (NECL-5 or CD155) …; assay: as above; remark: listed apart in the source
[13] = target: T2, Nectin-like protein 5 (NECL-5 or CD155) …; assay: BLI; biotinylated FcRn on SA sensors (5 μg/mL, to 1 nm), antibodies 10 μg/mL for 180 s, then antigens 20 μg/mL for 300 s; kinetic buffer pH 6.0, 30 °C; constants from the empirical model Equation (A1), k_diss fixed

T2 sequence (P15151 28-343): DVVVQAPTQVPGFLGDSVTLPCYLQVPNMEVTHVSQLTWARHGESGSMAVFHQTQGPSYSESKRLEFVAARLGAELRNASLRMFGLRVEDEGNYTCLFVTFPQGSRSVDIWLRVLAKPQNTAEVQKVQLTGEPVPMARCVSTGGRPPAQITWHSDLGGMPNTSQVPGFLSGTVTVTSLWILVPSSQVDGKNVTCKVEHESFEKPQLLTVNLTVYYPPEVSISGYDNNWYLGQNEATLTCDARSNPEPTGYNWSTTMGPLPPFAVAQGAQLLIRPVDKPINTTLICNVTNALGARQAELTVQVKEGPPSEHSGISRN
T3 sequence (Q9NZC2 19-174): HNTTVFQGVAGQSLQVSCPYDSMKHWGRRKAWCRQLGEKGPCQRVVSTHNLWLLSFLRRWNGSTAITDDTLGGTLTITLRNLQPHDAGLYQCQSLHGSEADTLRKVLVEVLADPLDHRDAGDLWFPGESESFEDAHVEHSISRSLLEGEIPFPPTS

Row | koff [1] | kon [1] | kon [2] | kon [3] | binding result [4] | binding result [5] | kon [6] | kon [7] | koff [8] | kon [8] | kon [9] | kon [10] | binding result [11] | kon [12] | kon [13] | Binder
1 | 3.72e-05 s⁻¹ | 134000 M⁻¹ s⁻¹ | 265000 M⁻¹ s⁻¹ | 470000 M⁻¹ s⁻¹ | no binding (tested: 10 μg/mL) | no binding (tested: 10 μg/mL) | 12000 M⁻¹ s⁻¹ | 180000 M⁻¹ s⁻¹ |  |  |  |  |  |  |  | AB1 antibody specific to BDCA-2 (BIIB059) (antibody, V domains shown) VH: DVQLVESGGGLVKPGGSLRLSCAASGFTFSTYTMSWVRQAPGKGLEWVATISPGDSFGYYYPDSVQGRFTISRDNAKNSLYLQMNSLRAEDTAVYYCTRDIYYNYGAWFAYWGQGTLVTVSS VL: DIQLTQSPSSLSASVGDRVTITCKASQSVDYDGDSYMNWYQQKPGKAPKLLIYAASTLESGVPSRFSGSGSGTDFTLTISSLQPEDFATYYCQQANEDPRTFGQGTKVEIK
2 |  |  |  |  |  | no binding (tested: 10 μg/mL) |  |  | 0.00105 s⁻¹ | 179000 M⁻¹ s⁻¹ | 99000 M⁻¹ s⁻¹ | 39500 M⁻¹ s⁻¹ | no binding (tested: 10 μg/mL) | 52000 M⁻¹ s⁻¹ | 20000 M⁻¹ s⁻¹ | AB2 antibody specific to NECL-5 (NTX1088) (antibody, V domains shown) VH: QVQLVQSGAEVKKPGASVKVSCKATGYTFSNYWIEWVRQAPGQGLEWIGEIFPGSGRINFNEKFKGRVTFTADTSISTTYMELSRLRSDDTAVYYCARTKIYGNSFDYWGQGTLVTVSS VL: DIQMTQSPSSLSASVGDRVTITCKASQDVGTAVVWYQQKPGKAPKLLIYWASSRHEGVPDRFSGSGSGTDFTLTISSLQPEDFADYFCQQYSRYPLTFGQGTKLEIK

Reference: publication PMC12649893 (Biosensors, 2025)
